Test results: patent US20230038878A1 (EVER SUPREME BIO TECHNOLOGY, published 2023)
One block for each molecule: values may come before it.

Experiments:
[1] = target: HLA-G recombinant protein (Origene, CAT #: TP305216) (human) (UniProt P17693); assay: competitive ELISA; competitor biotinylated LILRB1 on HLA-G recombinant protein
[2] = target: HLA-G recombinant protein (Origene, CAT #: TP305216) (human) (UniProt P17693); assay: competitive ELISA on HLA-G recombinant protein; blocked ligand: biotinylated KIR2DL4
[3] = target: HLA-G recombinant protein (Origene, CAT #: TP305216) (human) (UniProt P17693); assay: competitive ELISA on HLA-G recombinant protein; blocked ligand: biotinylated LILRB1
[4] = target: HLA-G recombinant protein (Origene, CAT #: TP305216) (human) (UniProt P17693); assay: competitive ELISA; competitor biotinylated KIR2DL4 on HLA-G recombinant protein
[5] = target: T1, PD-L1 on PD-L1 aAPC/CHO-K1 cells (PD-1/PD-L1 Blockade Bioassay Kit, Promega) (UniProt Q9NZQ7 19-290, limits assumed); assay: cell-based or functional assay
[6] = target: T2, PD-L1 recombinant protein (Sino Biological, CAT #: 10084-H05H) (UniProt Q9NZQ7 19-239); assay: SPR
T2 construct: Bought protein; also called programmed death-ligand 1
Procedure: The kinetic analysis of the PD-L1 nanobodies of the present disclosure and the binding affinity analysis of the PD-L1 recombinant protein (Sino Biological, CAT #: 10084-H05H) are performed by SPR analysis.

[7] = target: T1, PD-L1 on PD-L1 aAPC/CHO-K1 cells …; assay: cell-based or functional assay; remark: listed apart in the source

T1 sequence (Q9NZQ7 19-290 limits assumed): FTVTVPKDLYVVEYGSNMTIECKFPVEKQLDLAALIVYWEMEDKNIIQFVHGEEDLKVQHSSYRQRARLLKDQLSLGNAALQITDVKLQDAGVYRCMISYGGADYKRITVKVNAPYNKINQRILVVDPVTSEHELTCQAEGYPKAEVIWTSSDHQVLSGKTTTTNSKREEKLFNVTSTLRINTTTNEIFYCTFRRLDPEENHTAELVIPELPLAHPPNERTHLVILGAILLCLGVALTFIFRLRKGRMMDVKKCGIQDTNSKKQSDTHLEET
T2 sequence (Q9NZQ7 19-239 limits assumed): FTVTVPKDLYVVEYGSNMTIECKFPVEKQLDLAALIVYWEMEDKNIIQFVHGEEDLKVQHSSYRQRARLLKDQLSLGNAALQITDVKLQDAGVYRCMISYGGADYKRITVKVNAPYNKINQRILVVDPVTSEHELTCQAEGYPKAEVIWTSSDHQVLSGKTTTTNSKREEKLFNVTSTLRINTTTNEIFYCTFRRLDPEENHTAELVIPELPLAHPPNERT

- IC50 [1]: > 1000 nM
- IC50 (read off the curve) [2]: 100 nM
- IC50 (read off the curve) [3]: 7000 nM
- IC50 [4]: 104 nM
Molecule: HLA-G monoclonal antibody (87G, ThermoFisher)

- IC50 (read off the curve); PD-1/PD-L1 Blockade Bioassay (Promega), bioluminescence (RLU), which rises with the concentration [5]: ~20 nM
- Kd [6]: 0.86 nM
- koff [6]: 0.00521 s⁻¹
- kon [6]: 6.04e+06 M⁻¹ s⁻¹
- IC50 for the PD-1 blocking activity (PD-1/PD-L1 Blockade Bioassay, luminescence) [7]: ~37.7 nM
B1: PD-L1 Nb #3 (VHH)
VHH: EVQLVESGGGLVQPGGSLRLSCVASGFTFSSIGMSWVRQAPGKGLEWVSGLNPVGSHTGYADSVKGRFTISRDNAKNTLHLQLNSLKTEDTAMYYCQRGYTCSGDLCERGQGTQVTVSS
notes: Prepared as a free nanobody; also called PD-L1 nanobody

- Kd [6]: 0.91 nM
- koff [6]: 0.000936 s⁻¹
- kon [6]: 1.03e+06 M⁻¹ s⁻¹
- IC50 for the PD-1 blocking activity (PD-1/PD-L1 Blockade Bioassay, luminescence) [7]: ~0.48 nM
B2: PD-L1 Nb #15 (VHH)
VHH: HVQLVESGGGLVQPGGSLRLSCAASGFTFSSKAMSWVRQAPGKGLDWVSTINSGGGNTYYSDSVKGRFTISRDNAKNTLYLQLNSLKTEDTAMYYCSRCSDIYCGGQYTYRGQGTLVTVSS
notes: as for B1
